Reference: publication PMC8826056, “Different Functions of IbRAP2.4, a Drought-Responsive AP2/ERF Transcription Factor, in Regulating Root Development Between Arabidopsis and Sweetpotato”

Target: GST-IbRAP2.4 (Ipomoea batatas (Sushu 16), UniProt A0A3S6I5T9 1-294)
Experiment: EMSA; dose-dependent, 0.5-4 ug protein; unlabeled probe competes; 200 mM HEPES, 50 mM KCl, 5 mM DTT, 1 mM EDTA, 20 pmol poly dI-dC, 30 uL (so in the source), pH not stated; room temperature 30 min; 8% native PAGE
Details: protein: recombinant; tags: GST; label: 32P (T4 PNK, gamma-ATP); blunt (annealed oligonucleotide set)

Sequence of GST-IbRAP2.4 (A0A3S6I5T9 entry or part of it): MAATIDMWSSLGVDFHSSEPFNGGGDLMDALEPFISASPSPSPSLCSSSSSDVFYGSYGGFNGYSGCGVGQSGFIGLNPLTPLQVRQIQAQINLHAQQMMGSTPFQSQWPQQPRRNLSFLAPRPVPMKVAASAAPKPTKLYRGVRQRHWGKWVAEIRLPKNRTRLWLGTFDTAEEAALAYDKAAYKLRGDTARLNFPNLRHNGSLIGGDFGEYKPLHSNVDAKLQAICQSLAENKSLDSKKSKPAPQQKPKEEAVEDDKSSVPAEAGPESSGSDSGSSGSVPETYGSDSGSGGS

Binder | binding result
GCC-box probe (dsDNA) DNA 1: TTCATAAGAGCCGCCACTCATAAGAGCCGCCACT DNA 2: AGTGGCGGCTCTTATGAGTGGCGGCTCTTATGAA | binds
DRE probe (dsDNA) DNA 1: TTGATACTACCGACATGAGTTGATACTACCGACATGAGTT DNA 2: AACTCATGTCGGTAGTATCAACTCATGTCGGTAGTATCAA | binds
